# Measurements as given in the supplement of paper PMC9732359.
# ± gives the uncertainty stated by the source.
# Assay: protein stability index of a GFP-peptide fusion (yeast GPS) (PSI 1-4); higher = more stable; sorted into four equal gates, so the index is relative within each strain
# Summary of the method: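 Tiled yeast protein peptides of 17 residues were each joined downstream of GFP, on plasmids that also express Cherry. The pooled library was maintained in yeast, and mid-log cultures in leucine-free medium were sorted into four equal gates on the GFP/Cherry ratio. Plasmids from every gate were amplified by PCR and sequenced on Illumina, with barcodes linking reads to strains. The protein stability index of a peptide is its gate-number-weighted read frequency summed over the gates.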
Sequence,protein stability index (doa10∆),protein stability index (pdr5∆),protein stability index (san1∆),protein stability index (ubr1∆)
AQKCGWTIPHKKWNDLK [SIR2],3.25 ± 0.057,3.26 ± 0.086,3.26 ± 0.058,2.94 ± 0.038
VSIKDSTGCVVGLSQPD [YMR129W/POM152],2.09 ± 0.047,2.32 ± 0.058,2.05 ± 0.066,2.28 ± 0.036
VLTYPEKVTRYNRHKLQ [RPO31],2.1 ± 0.055,1.6 ± 0.048,2.32 ± 0.052,1.43 ± 0.05
VLIAQERSAGNIVQVFK [RPB2],2.85 ± 0.13,3.39 ± 0.23,2.97 ± 0.087,3.11 ± 0.064
STGCVVGLSQPDAKIQV [YMR129W/POM152],2.29 ± 0.15,2.47 ± 0.21,2.47 ± 0.063,2.42 ± 0.091
DAFVATAFATEFFVQVL [DLS1],2.98 ± 0.089,3.03 ± 0.089,3.12 ± 0.077,3.09 ± 0.072
SASKHEYSDNFPVSLSQ [SIR4],3 ± 0.045,2.71 ± 0.039,3.06 ± 0.04,3.041 ± 0.029
GVSRQIAASAFLSLLNL [REC8],1.5 ± 0.047,1.31 ± 0.045,1.17 ± 0.14,1.23 ± 0.038
HIPICVTFSFFNPQDTE [RRP45],1.56 ± 0.048,1.61 ± 0.06,1.28 ± 0.1,1.58 ± 0.046
PLLSLDVTPISMFGSDQ [RPN4],2.75 ± 0.12,2.79 ± 0.18,3.12 ± 0.13,3.18 ± 0.17
LKTLVQGPRSYFLDVKC [RPS27A],3.08 ± 0.076,3.21 ± 0.13,2.72 ± 0.12,2.99 ± 0.075
GRQTVLIKDNSAMVTTA [SRB2],–,1.8 ± 0.28,–,–
FKQKLNELLKCKDDVQL [MTW1],2.93 ± 0.054,2.96 ± 0.049,2.87 ± 0.036,3 ± 0.039
ENSYLRGLTPQEFFFHA [RPO21],2.49 ± 0.046,2.64 ± 0.046,2.45 ± 0.062,2.64 ± 0.047
ELTDEYLAENPDPNFEN [PRP8],3.45 ± 0.077,3.16 ± 0.076,3.36 ± 0.077,3.32 ± 0.053
SAKEIAKASGCDDESGD [MCD1],2.19 ± 0.094,1.8 ± 0.15,2.62 ± 0.12,2.86 ± 0.14
VTIIEPKEEEPILAPSV [RPS3],3.09 ± 0.13,2.59 ± 0.22,3.01 ± 0.14,2.67 ± 0.13
DRYGNRYFWLDHNGVPF [ITC1],2.8 ± 0.094,3.18 ± 0.098,2.92 ± 0.051,2.78 ± 0.082
DMVMATVKKGKPELRKK [RPL23A],3.49 ± 0.15,3.35 ± 0.18,3.54 ± 0.1,3.22 ± 0.11
MHRKSLRRASATVPSAP [YAR002W/NUP60],2.64 ± 0.071,2.82 ± 0.092,2.39 ± 0.064,2.74 ± 0.063
DELMVIYISNLVRSIIA [RPN8],2.44 ± 0.28,3.22 ± 0.17,–,3.24 ± 0.11
DLVIVDENELKKSEEKL [MTW1],3.51 ± 0.19,–,–,–
SVIVKFHSEPDRDENWI [LIN1],2.69 ± 0.072,3.08 ± 0.071,2.96 ± 0.056,2.75 ± 0.044
KTVCAIALILAIQMVDP [SMC3],1.11 ± 0.092,1.1 ± 0.072,2.08 ± 0.23,1.87 ± 0.081
SLWRRTVYSLSQQAGLD [YDL116W/NUP84],1.9 ± 0.12,2.39 ± 0.28,1.78 ± 0.27,2.26 ± 0.08
KTESQDVETRVQNLEQT [DPB4],3.49 ± 0.091,3.32 ± 0.065,3.2 ± 0.047,3.24 ± 0.048

Sequence,protein stability index (doa10∆),protein stability index (pdr5∆),protein stability index (san1∆),protein stability index (ubr1∆)
EQSLEVFIFPTSNWEIY [SRB8],2.47 ± 0.067,2.2 ± 0.048,2.57 ± 0.044,2.52 ± 0.033
AAIKDLDDFGEEELFEV [RRP43],2.46 ± 0.11,2.49 ± 0.14,2.17 ± 0.13,–
RLFNVVVQDSQTATQLL [SMC2],2.94 ± 0.07,2.79 ± 0.11,2.61 ± 0.1,2.44 ± 0.079
KLPLSVINVSAQRDRRY [RPS17A],1.8 ± 0.064,1.77 ± 0.058,1.43 ± 0.23,1.66 ± 0.15
KIHQQLLFKARLQQQQA [GAL11],1.3 ± 0.088,1.26 ± 0.089,1.25 ± 0.15,1.33 ± 0.069
NRQICLVQKTVQESGNI [GRR1],3.44 ± 0.16,3.21 ± 0.077,2.81 ± 0.064,2.69 ± 0.1
LFKKFNNDFKLSIDKVL [RET1],1.66 ± 0.12,1.8 ± 0.11,2.15 ± 0.15,2.67 ± 0.093
DTLKLRENLHILNEVFT [RRP6],2.26 ± 0.092,2.87 ± 0.06,2.59 ± 0.058,2.4 ± 0.051
VLESIVARTFWASKYGQ [BRR2],2.74 ± 0.063,2.37 ± 0.062,2.47 ± 0.096,2.61 ± 0.067
IYAGYDDRYGYQLYTSN [PRE9],2.99 ± 0.16,2.14 ± 0.25,1.86 ± 0.17,2.34 ± 0.16
VVRRRFRGNISQPKIGY [RPL32],2.85 ± 0.096,2.88 ± 0.06,2.9 ± 0.067,2.92 ± 0.05
KQGFVIYRVRVRRGNRK [RPL15A],1.17 ± 0.13,1.96 ± 0.11,1.29 ± 0.26,2.26 ± 0.089
ISSLGYRSHIFATNEER [SWI3],2.3 ± 0.072,1.96 ± 0.056,2.34 ± 0.055,2.33 ± 0.045
QWYTLQSQLNVTLSQLV [MED8],1.54 ± 0.034,2.15 ± 0.032,1.85 ± 0.075,1.67 ± 0.032
FKSTESNISDEKSRISE [YMR129W/POM152],3.3 ± 0.2,3.01 ± 0.16,2.78 ± 0.12,3.05 ± 0.17
MFGIRSGNNNGGFTNLT [YDL088C/ASM4],3.23 ± 0.085,3.41 ± 0.059,3.19 ± 0.054,3.4 ± 0.044
VRYTTSVMPPNEVYSAY [DLS1],2.83 ± 0.062,3.12 ± 0.069,2.48 ± 0.059,2.9 ± 0.061
TAVSFVSAAEDESLIRE [PRP28],2.77 ± 0.093,3.27 ± 0.15,3.04 ± 0.16,2.2 ± 0.15
SYYDNDLDETTQTFNGS [YML031W/NDC1],2.77 ± 0.043,2.78 ± 0.033,2.66 ± 0.038,2.81 ± 0.033
DHKFPIRENKVTYSRVS [BRN1],2.75 ± 0.13,2.9 ± 0.11,3.01 ± 0.097,2.66 ± 0.087
TELLNIYDSEDPQQVFD [RPN3],2.88 ± 0.1,3.13 ± 0.078,3.15 ± 0.084,2.87 ± 0.058
KGAATGKGRQSAKAELE [PRE10],1.24 ± 0.088,1.38 ± 0.079,1.45 ± 0.29,1.22 ± 0.064
DNGLGPLKYAPHLPFSK [SWI3],3.13 ± 0.058,3.22 ± 0.069,2.85 ± 0.07,3.21 ± 0.058
LHNLNEYQIVYYNPQAG [RGR1],1.41 ± 0.27,2.44 ± 0.15,2.1 ± 0.11,–
SLAGFHKVQTKLTRELE [RPS7A],2.4 ± 0.065,1.98 ± 0.06,1.57 ± 0.13,2.04 ± 0.058
RAFLIEEQKIVKKVVKE [RPL34A],3.25 ± 0.099,3.02 ± 0.13,2.99 ± 0.12,3.26 ± 0.091
